The source of these data is patent US7022673B2, “Method for increasing the serum half-life of a biologically active molecule” (Chiron Corporation, priority 1998, dated 2006).

pIC50: −log10 of the molar value. No end group written: not given here.

The conditions of data set [1]: relative to native protein; cited from earlier work.
Data set [2] can be described thus: Serum half-life after intravenous injection into mice. The format is in vivo. The following applies: for serum half-life: mice, intravenous injection. The method, then: uPA1-48 was produced in yeast, purified and concentrated into PBS. When produced in yeast, uPA1-48 lacks a fucosylation which is present when the protein is expressed in mammalian cells. The purified protein was injected intravenously into mice. Blood samples were collected at various time points, and the amount of uPA1-48 present in each sample was determined.
Pharmaceutical preparations comprising the conjugates of uPA1-48 and PEG were injected intravenously into mice. Blood samples were collected at various time points, and the amount of conjugate present in the blood was determined for each time point.

For data set [3], the target named is uPAR (Homo sapiens, UniProt Q03405). The data set is described as follows: uPAR receptor binding activity (method of Goodson et al.). The following applies: for pIC50: uPAR receptor binding.
Chain of uPAR (Q03405 23-335): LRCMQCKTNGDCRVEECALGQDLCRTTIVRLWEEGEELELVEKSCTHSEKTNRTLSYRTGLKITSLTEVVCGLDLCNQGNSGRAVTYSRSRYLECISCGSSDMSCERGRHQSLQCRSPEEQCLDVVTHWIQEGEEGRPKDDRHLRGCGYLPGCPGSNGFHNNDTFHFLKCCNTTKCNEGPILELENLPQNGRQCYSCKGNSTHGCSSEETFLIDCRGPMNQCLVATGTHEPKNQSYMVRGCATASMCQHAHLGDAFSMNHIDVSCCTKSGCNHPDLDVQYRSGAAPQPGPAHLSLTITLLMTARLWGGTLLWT
For data set [4], the system named is KM12 L4A cells (human colorectal adenocarcinoma). The data set is described as follows: Colon cancer tumor growth and liver metastases, intrasplenic KM12 L4A in nude mice. The format is in vivo. The following applies: 250 μg BID SC five times per week, 4 weeks. The method, then:
Twenty 10 week old Nude male mice were injected intrasplenically with 1×10^6 KM12 L4A cells (human colorectal adenocarcinoma) on day 0. The mice were divided into two groups, and treatment was initiated on day 1 post-implantation and continued for 4 weeks. Group 1, consisting of 10 mice, were subcutaneously injected five times per week with PEG hu1-48 (20 kD PEG) and 250 μg BID while group 2 mice acted as the control and were injected with vehicle only. The animals were sacrificed all 5 weeks, and the spleens of the animals from each group were weighed to determine primary tumor burden (FIG. 4A). The livers were weighed to determine metastatic tumor burden, and were scored by histological examination for incidence of metastases (FIG. 4B). […] For the purposes of comparison, the average splenic weight for mice in this age group is about 240 mg.

Data set [5] concerns KM12 L4A cells (human colorectal carcinoma cancer with high metastatic potential). The data set is described as follows: Liver metastases in post-resection colorectal carcinoma model (KM12 L4A, spleen removed). The format is in vivo, mice. The following applies: 1000 μg SC twice per week, vs vehicle. On the procedure:
Thirty male Nu/Nu mice were injected intrasplenically with 0.5×10^6 KM12 L4A cells (human colorectal carcinoma cancer with high metastatic potential), and the spleens of all the mice were removed 3 days after implantation of the KM12 L4A cells. The mice were divided into two treatment groups, and treatment was began 6 days after implantation. The first group of 15 mice received subcutaneous administrations of 1000 μg PEG hu1-48(20 kD PEG) twice per week, and the second group of 15 mice received saline vehicle only and served as the control group. The experiment was terminated 27 days after implantation of the KM12 L4A cells, and the weight of the livers were determined and histologically scored for metastatic foci.

Data set [6] has as its system MDA MB231 cells (human breast carcinoma). Briefly: Breast carcinoma MDA MB231 subcutaneous tumor growth in NOD/Ltz mice. The format is in vivo. The following applies: for tumor growth reduced: vs vehicle control at 9 weeks, p=0.05. On the procedure:
Thirty NOD/Ltz mice were injected subcutaneously with 2×10^6 MDA MB231 cells (human breast carcinoma) on day 0. The mice were divided into three groups of 10 mice each, and the treatment of the three groups of mice began on day 1. Twice every week, group 1 was subcutaneously injected with 30 μg PEG hu1-48 (20 kD PEG), group 2 was subcutaneously injected with 300 μg PEG hu1-48 (20 kD PEG), and group 3 was subcutaneously injected with the vehicle (PBS). Treatment was continued for 9 weeks. The primary tumor volume (mm^3) was measured three times per week for 12 weeks, and the experiment was terminated when mean tumor volume in vehicle control group exceeded 2000 mm^3.

Data set [7] is described as follows: Pharmacokinetics after single IV bolus or SC dose in cynomologous monkeys (active protein measured by receptor binding activity). The following applies: for t1/2: functional half-life. The format is in vivo. On the procedure: As above, blood samples were collected at various time points, and the amount of conjugate present in the blood was determined for each time point. The method measures the receptor binding activity instead of just the total protein present; thus the amount of protein measured as a function of time represents the active protein, and the measured half-life represents functional half-life. The data is shown in Table 1, and a graph illustrating plasma disposition of PEG hu1-48 over time is included in FIG. 1.

The test system of data set [8] is PC-3 mm2 cells (human prostate carcinoma). The data set is described as follows: Human prostate carcinoma PC-3 mm2 orthotopic tumor growth in nude mice. The format is in vivo. The following applies: 300 μg SC twice per week for 3 weeks, vs vehicle control. On the procedure: The prostates of 18 nude mice were injected with 1×10^5 PC-3 mm2 cells (human prostate carcinoma) on day 0. The mice were divided into two groups of nine mice each, and treatment was initiated on day 3 and continued for 3 weeks. Twice per week, the mice of group 1 received 300 μg PEG hu1-48 (20 kD PEG) by subcutaneous administration, and the mice of group 2 received vehicle only by subcutaneous administration. Three weeks after the implantation of the human prostate carcinoma cells, the prostates of the mice were excised and weighed to determine effects of treatment on the primary tumor growth.

“IL-8/PEG20 kD conjugate: literature conjugate of IL-8 with PEG20 kD (Gaertner and Offord 1996)”: the “change in half-life on conjugation to PEG20 kD” value in data set [1] is on record as “no change”.
Consider “PEG20 kD to IL-1ra: literature conjugate of PEG20 kD with IL-1ra (Gaertner and Offord 1996)”, for which the “change in half-life on conjugation to PEG20 kD” value in data set [1] is on record as “almost seven-fold increase”.
Turning to “uPA1-48 /PEG3.4 kD conjugate: uPA1-48 N-terminal aldehyde coupled to PEG hydrazide of nominal average molecular weight 3.4 kD ({PEG 3.4 kDa hydrazone}-SNELHQVPSNCDCLNGGTCVSNKYFSNIHWCNCPKKFGGQHCEIDKSK; cysteine pairing not given here; UniProt P00749 21-68, looked up, fragment)”, the serum half-life in data set [2] came to 0.2 h.
The same measure, in the same setting: as for “uPA1-48/PEG5 kD conjugate: uPA1-48 N-terminal aldehyde coupled to PEG hydrazide of nominal average molecular weight 5 kD ({PEG 5 kDa hydrazone}-SNELHQVPSNCDCLNGGTCVSNKYFSNIHWCNCPKKFGGQHCEIDKSK; cysteine pairing not given here; UniProt P00749 21-68, looked up, fragment)”, the figure is 0.733 h.
What is called pIC50 is the negative decadic logarithm of the IC50, by convention in mol/L. By AUC is commonly meant the area under the concentration-time curve, a measure of exposure. By Cmax is commonly meant the highest concentration seen after dosing. Usually MRT stands for a mean duration of stay, worked out from the concentration-time curve. In general, Tmax refers to the time at which the peak concentration occurs. As to “uPA1-48/PEG20 kD conjugate: uPA1-48 N-terminal aldehyde coupled to PEG hydrazide of nominal average molecular weight 20 kD ({PEG 20 kDa hydrazone}-SNELHQVPSNCDCLNGGTCVSNKYFSNIHWCNCPKKFGGQHCEIDKSK; cysteine pairing not given here; UniProt P00749 21-68, looked up, fragment)”, the “decrease in biological activity” value in data set [3] (relative to uPA1-48, uPAR binding) was “four-fold”. In addition, the negative-log IC50 (pIC50) in data set [3] was 9.00. For the same substance, in data set [4] (6 control mice had metastases, p<0.005), the “incidence of liver metastases” value is recorded as “no observed metastases”. The “mice with visible tumors in the spleen” value in data set [4] (of 10 mice) is reported as 7 mice. Also, in data set [4] (±113, control 641 mg, normal about 240 mg), the average spleen weight turned out to be 269 mg. In data set [2], this substance showed a serum half-life of 2.17 h. Besides, in data set [2] (relative to unmodified uPA1-48, mice), the “increase in serum half-life” value came to 13 fold. In data set [5] (day 27), the “overall liver tumor burden” value was “trend toward a reduction”. Moreover, the “metastases to the liver” value in data set [5] (p value <0.05, day 27) is recorded as “significantly reduced metastases to the liver”. For the same substance, the tumor growth reduced in data set [6] (30 μg SC twice every week) amounted to 77%. In addition, in data set [6] (300 μg SC twice every week), the tumor growth reduced was 98%. Besides, the “effect after treatment was stopped (day 63)” value in data set [6] (300 μg group observed additional 3 weeks, tumors evident by day 84) is “cytostatic effect”. In data set [7] (monkey F67-344F, IV, 10 mg/kg), this substance gave a t1/2 of 6.9 h, an AUC of 3297918 nM·min, a CL of 0.6 mL/min/kg and a Cmax of 19.143 µM. Also, in data set [7] (monkey F67-344F, IV, 10 mg/kg), the F worked out at 100%, the MRT amounted to 7.4 h, the Tmax was 0 h and the Vss was 0.252 L/kg. In data set [7] (monkey F67-344F, SC, 10 mg/kg), this substance gave a t1/2 of 23 h, an exposure (AUC) of 3803604 nM·min, a Cmax of 2.596 µM and an F of 115%. Moreover, in data set [7] (monkey F67-344F, SC, 10 mg/kg), the MRT came to 31 h and the Tmax came out at 8 h. In data set [7] (monkey F7238F, IV, 10 mg/kg), this substance yielded a t1/2 of 7.6 h, an area under the curve (AUC) of 3002085 nM·min, a CL of 0.6 mL/min/kg and a Cmax of 30.564 µM. In addition, in data set [7] (monkey F7238F, IV, 10 mg/kg), the F is listed as 100%, the mean residence time MRT amounted to 6.6 h, the time of peak concentration (Tmax) was 0 h and the Vss is given as 0.249 L/kg. In data set [7] (monkey F7238F, SC, 10 mg/kg), the t1/2 stood at 26 h, the AUC was determined as 3057502 nM·min, the peak concentration (Cmax) stood at 2.155 µM and the F is listed as 101%. Moreover, in data set [7] (monkey F7238F, SC, 10 mg/kg), the MRT turned out to be 28 h and the Tmax worked out at 4 h. In data set [7] (monkey F7281F, IV, 8.8 mg/kg), this substance displayed a t1/2 of 6.4 h, an AUC of 1987996 nM·min, a CL of 0.8 mL/min/kg and a peak concentration (Cmax) of 19.199 µM. Also, in data set [7] (monkey F7281F, IV, 8.8 mg/kg), the F is given as 100%, the mean residence time (MRT) turned out to be 5.1 h, the Tmax amounted to 0 h and the Vss is on record as 0.255 L/kg. Also, in data set [7] (monkey F7281F, SC, 10 mg/kg), the t1/2 turned out to be 14 h, the area under the curve (AUC) was determined as 2337888 nM·min, the Cmax is 1.126 µM and the F is on record as 103%. Also, in data set [7] (monkey F7281F, SC, 10 mg/kg), the MRT was 31 h and the time to peak (Tmax) is 8 h. Moreover, the “reduction in primary tumor growth (prostate weight)” value in data set [8] is on record as about 57%.
Regarding “uPA1-48/PEG25 kD conjugate: uPA1-48 N-terminal aldehyde coupled to PEG hydrazide of nominal average molecular weight 25 kD ({PEG 25 kDa hydrazone}-SNELHQVPSNCDCLNGGTCVSNKYFSNIHWCNCPKKFGGQHCEIDKSK; cysteine pairing not given here; UniProt P00749 21-68, looked up, fragment)”, the serum half-life in data set [2] amounted to 4.62 h.
For the substance “uPA1-48/PEG50 kD dimeric conjugate: a uPA1-48 molecule conjugated at each end of PEG50 kD (SNELHQVPSNCDCLNGGTCVSNKYFSNIHWCNCPKKFGGQHCEIDKSK; cysteine pairing not given here; also: dimer: one uPA1-48 conjugated at each end of PEG 50 kDa, site not given here; UniProt P00749 21-68, looked up, fragment)”, the serum half-life in data set [2] was found to be 4.8 h.
Turning to “uPA1-48: catalytically inactive protein comprising the first 48 amino acids of human uPA (EGF-like domain), produced in yeast (SNELHQVPSNCDCLNGGTCVSNKYFSNIHWCNCPKKFGGQHCEIDKSK; UniProt P00749 21-68, looked up, fragment)”, the pIC50 in data set [3] is 9.60. For the same substance, the serum half-life entry in data set [2] is recorded as “approximately 10 minutes”.
